{"source": "patent US20230002480A1", "test_in_all_cases": "cell-based or functional assay", "key": {"[1]": {"molecular_target": "HIV-1 Env of pseudovirus 0260.v5.c36 (HIV-1)"}, "[2]": {"molecular_target": "HIV-1 Env of pseudovirus 231966.c02 (HIV-1)"}, "[3]": {"molecular_target": "HIV-1 Env of pseudovirus 3365.v2.c2 (HIV-1)"}, "[4]": {"molecular_target": "HIV-1 Env of pseudovirus 3817.v2.c59 (HIV-1)"}, "[5]": {"molecular_target": "HIV-1 Env of pseudovirus A07412M1.vrc12 (HIV-1)"}, "[6]": {"molecular_target": "HIV-1 Env of pseudovirus BJOX010000.06.2 (HIV-1)"}, "[7]": {"molecular_target": "HIV-1 Env of pseudovirus BJOX025000.01.1 (HIV-1)"}, "[8]": {"molecular_target": "HIV-1 Env of pseudovirus BJOX028000.10.3 (HIV-1)"}, "[9]": {"molecular_target": "HIV-1 Env of pseudovirus C1080.c03 (HIV-1)"}, "[10]": {"molecular_target": "HIV-1 Env of pseudovirus C3347.c11 (HIV-1)"}, "[11]": {"molecular_target": "HIV-1 Env of pseudovirus CNE8 (HIV-1)"}, "[12]": {"molecular_target": "HIV-1 Env of pseudovirus R1166.c01 (HIV-1)"}, "[13]": {"molecular_target": "HIV-1 Env of pseudovirus R3265.c06 (HIV-1)"}, "[14]": {"molecular_target": "HIV-1 Env of pseudovirus T278-50 (HIV-1)"}}, "data": [{"substance": "N49P18.1 (antibody)", "values": [{"measurement": "IC50", "setting": "[1]", "value": 16.2, "unit": "µg/mL"}, {"measurement": "IC80", "setting": "[1]", "value": 47.8, "unit": "µg/mL"}, {"measurement": "MPI", "setting": "[1]", "value": 81}, {"measurement": "IC50", "setting": "[2]", "value": 29.9, "unit": "µg/mL"}, {"measurement": "IC80", "setting": "[2]", "value": "> 50", "unit": "µg/mL"}, {"measurement": "MPI", "setting": "[2]", "value": 67}, {"measurement": "IC50", "setting": "[3]", "value": 4.72, "unit": "µg/mL"}, {"measurement": "IC80", "setting": "[3]", "value": 14.3, "unit": "µg/mL"}, {"measurement": "MPI", "setting": "[3]", "value": 99}, {"measurement": "IC50", "setting": "[4]", "value": "> 50", "unit": "µg/mL"}, {"measurement": "IC80", "setting": "[4]", "value": "> 50", "unit": "µg/mL"}, {"measurement": "MPI", "setting": "[4]", "value": 34}, {"measurement": "IC50", "setting": "[5]", "value": 41.3, "unit": "µg/mL"}, {"measurement": "IC80", "setting": "[5]", "value": "> 50", "unit": "µg/mL"}, {"measurement": "MPI", "setting": "[5]", "value": 54}, {"measurement": "IC50", "setting": "[6]", "value": "> 50", "unit": "µg/mL"}, {"measurement": "IC80", "setting": "[6]", "value": "> 50", "unit": "µg/mL"}, {"measurement": "MPI", "setting": "[6]", "value": 39}, {"measurement": "IC50", "setting": "[7]", "value": 7.67, "unit": "µg/mL"}, {"measurement": "IC80", "setting": "[7]", "value": 39.1, "unit": "µg/mL"}, {"measurement": "MPI", "setting": "[7]", "value": 85}, {"measurement": "IC50", "setting": "[8]", "value": 34, "unit": "µg/mL"}, {"measurement": "IC80", "setting": "[8]", "value": "> 50", "unit": "µg/mL"}, {"measurement": "MPI", "setting": "[8]", "value": 64}, {"measurement": "IC50", "setting": "[9]", "value": "> 50", "unit": "µg/mL"}, {"measurement": "IC80", "setting": "[9]", "value": "> 50", "unit": "µg/mL"}, {"measurement": "MPI", "setting": "[9]", "value": 50}, {"measurement": "IC50", "setting": "[10]", "value": 4.2, "unit": "µg/mL"}, {"measurement": "IC80", "setting": "[10]", "value": 14.3, "unit": "µg/mL"}, {"measurement": "MPI", "setting": "[10]", "value": 99}, {"measurement": "IC50", "setting": "[11]", "value": 16.2, "unit": "µg/mL"}, {"measurement": "IC80", "setting": "[11]", "value": 44.7, "unit": "µg/mL"}, {"measurement": "MPI", "setting": "[11]", "value": 83}, {"measurement": "IC50", "setting": "[12]", "value": 19.2, "unit": "µg/mL"}, {"measurement": "IC80", "setting": "[12]", "value": "> 50", "unit": "µg/mL"}, {"measurement": "MPI", "setting": "[12]", "value": 78}, {"measurement": "IC50", "setting": "[13]", "value": 27.9, "unit": "µg/mL"}, {"measurement": "IC80", "setting": "[13]", "value": "> 50", "unit": "µg/mL"}, {"measurement": "MPI", "setting": "[13]", "value": 66}, {"measurement": "IC50", "setting": "[14]", "value": "> 50", "unit": "µg/mL"}, {"measurement": "IC80", "setting": "[14]", "value": "> 50", "unit": "µg/mL"}, {"measurement": "MPI", "setting": "[14]", "value": 36}]}]}
